Measurements published in patent US6933132.
pKd: −log10 of the molar value.

Assays:
[1] = molecular target: surface of a PHA-activated T cell (unidentified binding site for soluble attractin-1); experiment: Scatchard analysis, 125I-labeled soluble attractin on cells, 1 hr at 4 C
[2] = molecular target: surface of a resting T cell (unidentified binding site for soluble attractin-1); experiment: as above

pKd [1]: 10.30 to 11.30
molecules bound per cell (molecules per cell) [1]: 2000
pKd [2]: 10.30 to 11.30
molecules bound per cell (molecules per cell) [2]: 1000
Substance: purified natural serum soluble attractin-1, 125I-labeled (from UniProt O75882 1-1267) (ligand)
